Reference: the supplement of paper PMC9876800

Test system: peptide library, one residue held at a place counted from the S/T acceptor
Assay: relative phosphorylation of the sub-library (ratio to the mean residue at this position); higher = residue favoured
Outline: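 Human or orthologue kinase constructs, purified and recombinant, were incubated under kinase-specific conditions in 384-well plates with biotinylated degenerate peptide sub-libraries. Each sub-library fixed one residue at one position around a central Ser/Thr. Incubations lasted 90 min with peptides at 50 μM and 50 μM ATP spiked with γ-32P-ATP, after which spots on streptavidin membranes were phosphorimaged and quantified by densitometry. Relative sub-library phosphorylation is a ratio to the mean residue at that position.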

Sequence of ALPK1, construct: aa1-474 and aa959-end, human (Q96QP1 1-474, looked up): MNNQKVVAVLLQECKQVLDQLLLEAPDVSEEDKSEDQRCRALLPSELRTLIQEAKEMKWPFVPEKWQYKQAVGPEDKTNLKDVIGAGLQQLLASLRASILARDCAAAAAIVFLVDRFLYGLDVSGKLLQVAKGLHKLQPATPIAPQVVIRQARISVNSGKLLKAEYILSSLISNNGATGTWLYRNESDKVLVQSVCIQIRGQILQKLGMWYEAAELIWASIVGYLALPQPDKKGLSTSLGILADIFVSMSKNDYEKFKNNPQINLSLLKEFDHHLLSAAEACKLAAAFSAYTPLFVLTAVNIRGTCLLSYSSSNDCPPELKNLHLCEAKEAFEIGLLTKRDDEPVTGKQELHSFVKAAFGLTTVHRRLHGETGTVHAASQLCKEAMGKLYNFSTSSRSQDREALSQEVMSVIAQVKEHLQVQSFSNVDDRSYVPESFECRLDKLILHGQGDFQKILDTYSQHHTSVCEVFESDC
Sequence of BMP2K, construct: aa37-345, human (Q9NSY1 37-345, looked up): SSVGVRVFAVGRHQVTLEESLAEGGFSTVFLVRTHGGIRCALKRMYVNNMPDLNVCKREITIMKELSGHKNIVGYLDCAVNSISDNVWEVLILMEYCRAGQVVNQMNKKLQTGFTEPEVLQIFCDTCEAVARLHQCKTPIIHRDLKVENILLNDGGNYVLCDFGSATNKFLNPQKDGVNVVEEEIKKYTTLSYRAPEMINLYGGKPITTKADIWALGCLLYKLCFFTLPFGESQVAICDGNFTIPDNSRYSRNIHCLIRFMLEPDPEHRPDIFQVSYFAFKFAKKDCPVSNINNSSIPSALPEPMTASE
Sequence of CAMK1G, construct: aa4-312, human (Q96NX5 4-312, looked up): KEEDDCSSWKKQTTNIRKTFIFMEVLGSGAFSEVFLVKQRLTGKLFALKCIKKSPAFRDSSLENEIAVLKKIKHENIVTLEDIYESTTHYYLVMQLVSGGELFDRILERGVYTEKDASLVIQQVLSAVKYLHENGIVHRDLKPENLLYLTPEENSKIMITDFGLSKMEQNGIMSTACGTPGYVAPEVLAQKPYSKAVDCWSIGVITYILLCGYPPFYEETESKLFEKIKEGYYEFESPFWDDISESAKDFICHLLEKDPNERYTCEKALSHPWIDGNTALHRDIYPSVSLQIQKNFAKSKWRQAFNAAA
Sequence of BRSK1, construct: Full length, human (Q8TDC3 whole entry, looked up): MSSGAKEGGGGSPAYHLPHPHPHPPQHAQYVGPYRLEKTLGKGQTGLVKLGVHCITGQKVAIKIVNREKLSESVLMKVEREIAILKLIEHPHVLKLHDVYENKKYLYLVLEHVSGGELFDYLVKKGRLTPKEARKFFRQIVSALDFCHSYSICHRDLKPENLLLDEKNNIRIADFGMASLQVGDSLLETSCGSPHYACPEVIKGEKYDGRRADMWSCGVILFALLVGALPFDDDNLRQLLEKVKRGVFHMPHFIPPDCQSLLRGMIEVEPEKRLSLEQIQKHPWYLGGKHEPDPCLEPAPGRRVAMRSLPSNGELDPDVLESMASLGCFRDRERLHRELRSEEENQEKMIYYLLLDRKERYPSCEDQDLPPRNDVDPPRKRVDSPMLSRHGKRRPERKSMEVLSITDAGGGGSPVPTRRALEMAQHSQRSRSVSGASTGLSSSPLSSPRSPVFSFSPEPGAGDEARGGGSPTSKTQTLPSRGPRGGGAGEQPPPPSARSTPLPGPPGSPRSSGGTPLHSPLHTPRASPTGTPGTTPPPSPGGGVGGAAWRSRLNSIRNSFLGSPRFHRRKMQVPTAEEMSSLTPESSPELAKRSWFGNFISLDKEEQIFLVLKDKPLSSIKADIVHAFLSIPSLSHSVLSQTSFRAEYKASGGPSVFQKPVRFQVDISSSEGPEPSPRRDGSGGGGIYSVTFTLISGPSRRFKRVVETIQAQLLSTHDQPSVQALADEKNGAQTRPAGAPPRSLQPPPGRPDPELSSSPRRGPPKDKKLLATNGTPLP

BRSK1, construct: Full length, human (from UniProt Q8TDC3)
relative phosphorylation
Conditions	at +1	at +2	at +3	at +4	at -1	at -2	at -3	at -4	at -5
A fixed	0.673	0.575	0.697	0.51	1.03	2.4	0.781	1.28	1.05
D fixed	0.631	0.801	2.83	0.644	0.813	0.773	0.334	0.552	0.451
E fixed	0.649	0.672	0.947	0.556	0.748	0.6	0.374	0.678	0.494
F fixed	1.67	1.41	1.4	1.09	0.72	1.04	0.522	0.648	1.12
G fixed	0.458	0.349	0.67	0.572	1.24	1.12	0.616	1.29	0.961
H fixed	0.966	1.64	1.02	0.623	1.08	1	1.1	1.19	0.765
I fixed	0.636	0.435	0.353	3.13	0.494	0.534	0.235	0.422	0.943
K fixed	0.703	0.256	0.669	0.597	1.24	1.25	2.41	2.03	1.25
L fixed	1.12	0.672	0.529	2.95	0.951	0.476	0.32	0.56	1.09
M fixed	3.06	0.841	0.614	1.67	1.17	0.627	0.546	0.829	1.55
N fixed	1.08	1.1	2.82	0.835	0.94	0.902	0.596	0.699	0.637
P fixed	0.306	0.467	0.32	0.628	1.53	0.735	0.673	1.48	0.939
Q fixed	1.18	1.13	1.15	0.714	0.996	0.734	0.755	0.985	0.829
R fixed	0.985	0.357	0.729	0.575	1.34	1.7	6.17	2.19	2.01
V fixed	0.73	0.381	0.405	0.861	0.75	1.01	0.311	0.678	0.857
W fixed	0.787	2.02	0.804	0.59	0.696	1.12	0.667	0.774	0.911
Y fixed	1.37	3.9	1.04	0.465	1.26	0.984	0.586	0.726	1.14
pThr fixed	1.81	0.59	0.438	0.686	0.407	0.465	0.392	0.723	0.544
pTyr fixed	0.633	0.948	0.928	0.475	1.75	0.606	0.657	0.678	0.776

ALPK1, construct: aa1-474 and aa959-end, human (from UniProt Q96QP1)
relative phosphorylation
Conditions	at +1	at +2	at +3	at +4	at -1	at -2	at -3	at -4	at -5
A fixed	0.392	0.063	0.503	1.02	0.957	1.29	0.868	0.65	0.43
D fixed	0.704	0.889	1.31	1.21	2.26	1.87	2.74	2	1.61
E fixed	3.35	2.03	1.22	1.27	1.9	0.573	1.83	1.77	1.83
F fixed	0.991	1.09	1.36	1.05	0.862	0.626	0.757	1.02	0.92
G fixed	0.404	0.704	0.365	0.933	0.798	0.731	0.687	0.798	0.812
H fixed	1.15	1.07	1	1.37	0.779	0.466	1.21	1.24	0.763
I fixed	1.27	1.14	0.752	0.378	1.16	1.02	0.608	0.848	1.02
K fixed	0.774	1.49	1.08	1.09	1.13	0.599	0.905	1.31	0.94
L fixed	0.474	1.11	1.09	0.718	0.704	1.29	0.392	0.763	0.67
M fixed	1.63	1.38	1.49	0.671	0.979	1.13	0.9	0.651	1.14
N fixed	0.75	1.19	0.97	1.36	0.572	0.718	1.11	0.874	1.08
P fixed	0.39	1.01	0.781	1.16	0.805	1.54	0.952	1.02	0.971
Q fixed	1.01	0.617	0.852	0.914	0.933	1.31	0.826	0.758	1.16
R fixed	1.23	0.649	0.935	0.774	0.731	0.797	1.02	1.09	1.28
V fixed	0.557	1.08	1.06	0.914	0.569	1.09	0.694	0.547	0.996
W fixed	0.811	1.01	1.06	1.1	1.04	0.771	0.557	0.92	0.613
Y fixed	1.11	0.478	1.17	1.06	0.826	1.18	0.944	0.741	0.762
pThr fixed	0.485	1.34	1.32	1.94	1.71	1.9	2.27	1.42	1.5
pTyr fixed	1.74	1.33	1.73	2.97	9.01	0.489	1.53	1.85	1.83

CAMK1G, construct: aa4-312, human (from UniProt Q96NX5)
relative phosphorylation
Conditions	at +1	at +2	at +3	at +4	at -1	at -2	at -3	at -4	at -5
A fixed	0.642	0.76	0.621	0.551	0.799	0.862	0.549	0.716	0.628
D fixed	0.415	0.664	0.754	0.687	0.868	0.426	0.285	0.428	0.451
E fixed	0.379	0.584	0.709	0.651	0.562	0.421	0.274	0.548	0.424
F fixed	2.19	0.959	1.5	1.69	0.634	0.743	0.545	0.916	1.01
G fixed	0.693	0.541	0.763	0.665	0.98	0.927	0.395	0.754	0.628
H fixed	0.691	1.37	1.2	0.846	0.991	0.867	0.602	1.08	0.879
I fixed	0.442	1.1	0.904	1.09	0.554	0.413	0.413	0.913	1.26
K fixed	2.37	1.51	1.22	1.02	2.43	1.64	1.95	2.49	1.38
L fixed	0.51	1.09	1.08	1.99	0.684	0.554	0.506	0.979	2.03
M fixed	0.931	0.968	1.01	1.43	0.723	1.02	0.68	0.936	1.29
N fixed	0.894	1.18	1.41	0.972	1.71	1.03	0.48	0.833	0.656
P fixed	0.305	0.403	0.435	0.747	1.17	0.386	0.343	0.496	0.933
Q fixed	1.27	0.908	0.969	0.986	1.05	2.24	0.777	0.936	0.84
R fixed	3.15	1.78	1.53	1.1	1.97	3.14	7.64	2.06	2.08
V fixed	0.463	0.892	0.642	0.67	0.675	0.483	0.366	0.754	0.818
W fixed	0.896	1.08	1.28	1.05	0.575	1.13	0.617	1.17	0.692
Y fixed	0.756	1.22	0.981	0.856	0.63	0.712	0.581	0.991	0.982
pThr fixed	0.933	1.57	0.938	1.1	0.856	0.667	0.447	0.759	0.579
pTyr fixed	0.717	4.89	1.31	0.992	0.749	0.652	0.486	0.704	0.774

BMP2K, construct: aa37-345, human (from UniProt Q9NSY1)
relative phosphorylation
Conditions	at +1	at +2	at +3	at +4	at -1	at -2	at -3	at -4	at -5
A fixed	0.537	1.05	0.882	0.9	0.668	0.84	1.54	1.11	0.639
D fixed	0.361	0.974	0.763	0.733	0.467	1.22	0.575	0.621	0.453
E fixed	0.338	0.938	0.68	0.806	0.428	0.942	0.684	0.871	0.45
F fixed	0.379	0.866	0.81	0.94	1.26	0.754	0.916	0.963	0.863
G fixed	10.2	0.959	1.4	0.987	0.76	0.579	0.812	1.04	0.565
H fixed	0.392	1.08	1.21	0.989	1.35	1	0.815	0.95	0.739
I fixed	0.351	0.716	0.716	0.769	0.852	0.713	1.26	1	1.92
K fixed	0.435	0.966	1.2	1.39	1.76	0.993	0.926	1.31	0.594
L fixed	0.349	0.699	0.841	0.801	1.17	0.96	0.901	1.15	1.39
M fixed	0.368	0.842	0.765	0.847	1.18	1.91	1.46	1.12	1.24
N fixed	0.46	1.62	1.28	1.06	0.717	1.17	0.843	0.845	0.61
P fixed	0.674	0.802	1.01	0.988	0.846	0.485	1.34	0.868	1.13
Q fixed	0.384	1.22	1.04	1.14	0.818	2.26	1.02	1.08	1.02
R fixed	0.605	1.37	1.51	1.54	1.36	1	1.03	1.29	1.55
V fixed	0.358	0.87	0.929	0.753	0.806	0.64	1.17	0.987	1.32
W fixed	0.431	1.06	0.963	1.26	0.984	0.676	0.832	0.81	0.794
Y fixed	0.414	0.964	1	1.1	1.58	0.872	0.897	0.977	1.73
pThr fixed	0.4	0.715	0.663	0.527	0.427	0.528	0.634	0.638	0.583
pTyr fixed	0.357	0.841	0.698	0.572	0.527	0.928	0.647	0.72	1.19
